The record followed here is US20180057581A1 (MorphoSys, published 2018).

Common to all, as to test: MSD specificity profiling, coated protein, Camille at 100 nM
One assay has as its target T1, RNase A (cow) (cow, UniProt P61823 27-150).
T1 sequence (looked up): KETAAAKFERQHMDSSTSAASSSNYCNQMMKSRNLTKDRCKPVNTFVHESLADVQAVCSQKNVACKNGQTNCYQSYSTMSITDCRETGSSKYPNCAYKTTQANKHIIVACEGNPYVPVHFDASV
On the procedure:
(§1) For this specificity profiling test the different proteins and controls were coated on two 384-well MSD plates with a concentration of 1 μg/ml at 4° C. over night. Plates were blocked with BSA and washed three times with PBS with 0.05% (v/v) Tween 20. Antibody samples were diluted to 100 nM and 10 nM in assay buffer (PBS with 0.5% (w/v) BSA, 0.05% (v/v) Tween 20). […] Samples and controls were incubated for three hours at room temperature. The plates were washed three times and 30 μl detection antibody (ECL-labeled anti-human Fab) were added per well and incubated for 1 h. After washing, MSD Read Buffer T with surfactant was added and electrochemiluminescence signals were detected using a Sector Imager 6000 (Meso Scale Discovery, Gaithersburg, Md., USA).

Assay [1] addresses Aminogylcosidase (Aspergillus niger) (Aspergillus niger). As to the method:
as §1

The next assay deals with T2, Ovalbumin (chicken) (chicken, UniProt P01012 2-386).
T2 sequence (looked up): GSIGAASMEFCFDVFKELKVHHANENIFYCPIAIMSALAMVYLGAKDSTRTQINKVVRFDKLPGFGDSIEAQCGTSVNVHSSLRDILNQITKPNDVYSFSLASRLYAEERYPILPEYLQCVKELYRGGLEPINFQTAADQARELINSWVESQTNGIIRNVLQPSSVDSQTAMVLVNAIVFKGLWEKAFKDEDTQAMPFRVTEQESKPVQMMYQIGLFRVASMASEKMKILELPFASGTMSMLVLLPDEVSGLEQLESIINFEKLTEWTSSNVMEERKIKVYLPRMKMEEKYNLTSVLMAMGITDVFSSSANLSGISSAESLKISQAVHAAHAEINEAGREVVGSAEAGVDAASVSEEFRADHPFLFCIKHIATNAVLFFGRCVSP
On the procedure:
as §1

For a further assay, the target named is Cytochrome c (cow) (cow, UniProt P62894 2-105). On the procedure:
as §1

The target in a further assay is Serum albumin (human) (human, UniProt P02768 25-609). As to the method: as §1
Another assay addresses Lysozyme (chicken) (chicken, UniProt P00698 19-147). On the procedure:
as §1

For another assay, the target named is Transferrin (bovine) (bovine, UniProt Q29443 20-704). On the procedure: as §1
In the next assay the target is T3, human M-CSF (human, UniProt P09603 33-255, limits assumed).
T3 construct: also called M-CSF (human); CSF-1
T3 sequence: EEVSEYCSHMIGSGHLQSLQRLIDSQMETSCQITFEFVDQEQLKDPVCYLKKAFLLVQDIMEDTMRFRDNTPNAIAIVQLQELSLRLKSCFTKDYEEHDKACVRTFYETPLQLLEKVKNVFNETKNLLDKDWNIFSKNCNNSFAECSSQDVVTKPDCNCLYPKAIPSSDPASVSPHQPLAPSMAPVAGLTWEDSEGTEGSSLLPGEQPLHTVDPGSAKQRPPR
As to the method: as §1

A further assay concerns the target Cytokine 1 (human) (human). As to the method: as §1
The next assay has as its target Cytokine 2 (human) (human). On the procedure: as §1
A further assay has as its target T4, RNase B (cow) (cow, UniProt P61823 27-150).
T4 sequence (looked up): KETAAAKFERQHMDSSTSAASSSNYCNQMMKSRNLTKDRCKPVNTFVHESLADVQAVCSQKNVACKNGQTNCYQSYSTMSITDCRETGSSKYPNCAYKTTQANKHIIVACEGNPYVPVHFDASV
On the procedure: as §1

For the next assay, the target named is T5, Trypsinogen (cow) (cow, UniProt P00760 18-246).
T5 sequence (looked up): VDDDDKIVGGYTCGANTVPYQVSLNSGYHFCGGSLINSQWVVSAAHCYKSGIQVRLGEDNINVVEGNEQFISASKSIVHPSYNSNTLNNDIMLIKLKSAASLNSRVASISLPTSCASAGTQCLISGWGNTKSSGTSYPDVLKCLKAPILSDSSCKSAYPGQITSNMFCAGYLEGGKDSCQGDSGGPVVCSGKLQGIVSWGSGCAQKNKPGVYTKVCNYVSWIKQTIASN
As to the method:
as §1

The target of the next assay is Myoglobin (horse) (horse, UniProt P68082 2-154). As to the method:
as §1

In a further assay the target is Pepsinogen (pork) (pork, UniProt P00791 16-385). As to the method:
as §1

In another assay the target is T6, Lectin (Lens culinaris) (Lens culinaris, UniProt P02870 31-210; P02870 218-269, limits assumed).
T6 sequence (looked up) 1: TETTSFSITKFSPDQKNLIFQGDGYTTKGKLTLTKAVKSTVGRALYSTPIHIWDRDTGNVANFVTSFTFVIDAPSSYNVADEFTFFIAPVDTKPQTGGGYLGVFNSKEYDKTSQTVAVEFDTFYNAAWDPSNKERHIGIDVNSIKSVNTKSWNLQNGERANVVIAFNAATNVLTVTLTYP
T6 sequence (looked up) 2: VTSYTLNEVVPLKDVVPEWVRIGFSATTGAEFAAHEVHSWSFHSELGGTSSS
On the procedure:
as §1

Another assay has as its target Antitrypsin (human) (human, UniProt P01009 25-418). On the procedure: as §1
In assay [2] the target is Anti-human Fc (Dianova, #109-005-098). On the procedure:
as §1

Assay [3] concerns the target Cell surface receptor 2 (human) (human). As to the method: as §1
For assay [4], the target named is Cell surface receptor 3 (human) (human). On the procedure: as §1

Cytochrome c (cow), sequence (P62894 2-105 limits assumed): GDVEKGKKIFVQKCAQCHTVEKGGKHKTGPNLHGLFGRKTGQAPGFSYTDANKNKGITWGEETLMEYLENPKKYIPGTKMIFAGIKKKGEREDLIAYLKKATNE
Lysozyme (chicken), sequence (P00698 19-147): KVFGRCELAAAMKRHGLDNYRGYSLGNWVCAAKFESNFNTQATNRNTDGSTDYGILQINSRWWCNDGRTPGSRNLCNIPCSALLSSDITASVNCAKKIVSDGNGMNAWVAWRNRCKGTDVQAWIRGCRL
Pepsinogen (pork), sequence (P00791 16-385): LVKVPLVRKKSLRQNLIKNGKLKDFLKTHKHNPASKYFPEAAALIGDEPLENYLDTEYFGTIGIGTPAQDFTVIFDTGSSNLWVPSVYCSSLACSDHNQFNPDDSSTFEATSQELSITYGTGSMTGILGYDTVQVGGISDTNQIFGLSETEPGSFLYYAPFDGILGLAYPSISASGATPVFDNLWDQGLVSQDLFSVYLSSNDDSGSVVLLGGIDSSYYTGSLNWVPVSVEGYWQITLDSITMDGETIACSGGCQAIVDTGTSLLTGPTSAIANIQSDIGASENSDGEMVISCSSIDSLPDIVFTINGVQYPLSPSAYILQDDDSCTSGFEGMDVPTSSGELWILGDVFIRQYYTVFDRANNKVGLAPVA
Myoglobin (horse), sequence (P68082 2-154 limits assumed): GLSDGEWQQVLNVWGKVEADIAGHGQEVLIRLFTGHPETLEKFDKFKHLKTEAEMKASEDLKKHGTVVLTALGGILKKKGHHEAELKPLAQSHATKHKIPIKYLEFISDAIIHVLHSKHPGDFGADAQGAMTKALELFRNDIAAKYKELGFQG
Aminogylcosidase (Aspergillus niger) (Aspergillus niger), sequence (P69328 25-640): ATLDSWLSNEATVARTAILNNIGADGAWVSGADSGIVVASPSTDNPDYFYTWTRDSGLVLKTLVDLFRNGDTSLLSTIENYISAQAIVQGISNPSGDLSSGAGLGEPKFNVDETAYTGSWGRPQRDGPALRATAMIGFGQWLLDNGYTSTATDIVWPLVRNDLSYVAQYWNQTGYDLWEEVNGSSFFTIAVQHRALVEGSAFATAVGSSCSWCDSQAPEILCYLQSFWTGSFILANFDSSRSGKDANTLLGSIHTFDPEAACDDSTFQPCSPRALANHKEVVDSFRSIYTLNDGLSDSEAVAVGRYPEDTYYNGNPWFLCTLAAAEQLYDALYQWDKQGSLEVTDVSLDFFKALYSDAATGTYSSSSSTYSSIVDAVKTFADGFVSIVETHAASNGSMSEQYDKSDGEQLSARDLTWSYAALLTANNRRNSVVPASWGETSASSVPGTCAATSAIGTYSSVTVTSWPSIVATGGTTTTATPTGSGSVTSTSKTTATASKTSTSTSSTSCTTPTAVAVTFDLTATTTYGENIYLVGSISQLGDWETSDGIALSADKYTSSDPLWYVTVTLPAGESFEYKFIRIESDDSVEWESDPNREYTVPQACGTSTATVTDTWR
Antitrypsin (human), sequence (P01009 25-418 limits assumed): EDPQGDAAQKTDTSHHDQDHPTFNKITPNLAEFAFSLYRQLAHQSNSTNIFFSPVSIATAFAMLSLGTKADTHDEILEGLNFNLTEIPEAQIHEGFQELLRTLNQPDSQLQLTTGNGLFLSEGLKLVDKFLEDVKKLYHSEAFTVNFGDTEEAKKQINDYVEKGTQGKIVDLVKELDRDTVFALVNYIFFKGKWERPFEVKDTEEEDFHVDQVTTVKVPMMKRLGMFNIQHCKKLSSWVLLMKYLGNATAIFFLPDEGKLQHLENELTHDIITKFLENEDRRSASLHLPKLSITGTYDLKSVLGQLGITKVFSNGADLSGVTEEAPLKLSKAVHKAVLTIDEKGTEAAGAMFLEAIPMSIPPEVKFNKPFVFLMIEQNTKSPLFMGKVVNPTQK
Transferrin (bovine), sequence (Q29443 20-704 limits assumed): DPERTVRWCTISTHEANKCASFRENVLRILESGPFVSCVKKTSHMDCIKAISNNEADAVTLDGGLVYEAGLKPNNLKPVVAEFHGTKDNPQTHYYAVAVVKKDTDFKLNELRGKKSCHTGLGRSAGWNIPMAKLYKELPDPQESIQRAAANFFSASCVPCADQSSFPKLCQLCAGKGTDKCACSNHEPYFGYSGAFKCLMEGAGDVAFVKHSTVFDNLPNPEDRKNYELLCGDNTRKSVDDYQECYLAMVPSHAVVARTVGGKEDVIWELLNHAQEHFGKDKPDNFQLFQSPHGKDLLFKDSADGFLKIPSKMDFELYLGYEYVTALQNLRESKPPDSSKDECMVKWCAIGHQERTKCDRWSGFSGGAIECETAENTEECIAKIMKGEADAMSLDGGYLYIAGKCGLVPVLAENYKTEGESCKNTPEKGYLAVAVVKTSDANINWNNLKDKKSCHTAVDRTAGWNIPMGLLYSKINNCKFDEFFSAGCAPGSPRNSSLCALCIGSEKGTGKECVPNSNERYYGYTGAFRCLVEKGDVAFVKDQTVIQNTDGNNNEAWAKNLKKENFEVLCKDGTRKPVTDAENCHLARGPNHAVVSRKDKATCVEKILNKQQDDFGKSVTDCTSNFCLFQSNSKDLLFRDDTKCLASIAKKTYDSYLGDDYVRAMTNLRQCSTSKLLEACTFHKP

B1: Camille (format not stated) (antibody, V domains shown)
VH: QVQLQQSGPGLVKPSQTLSLTCAISGESVSTSSAAWNWIRQSPSRGLEWLGRTYYRSKWKHEYAVSVKSRITINPDTSKNQFSLQLNSVTPEDTAVYYCARDRYYYSAFDYWGQGTLVTVSS
VL: QSALTQPASVSGSPGQSITISCTGTSSDVGGYNSVSWYQQHPGKAPKLLIYAVSNRPSGVSNRFSGSKSGNTASLTISGLQAEDEADYYCASYDERFTRVFGGGTKLTVLG
notes: also called Antibody Camille
Take B1: the “signal normalized to reference antibody MOR03207” value (shortened to “signal normalized”) with RNase A (cow) stood at 1 ratio; in assay [1], 1 ratio; with Ovalbumin (chicken), 1 ratio; with Cytochrome c (cow), 1 ratio; with Serum albumin (human) it was 1 ratio; in the assay with Lysozyme (chicken) it was 0 ratio. Moreover, the “signal normalized” value was 1 ratio in the assay with Transferrin (bovine); 24 ratio with human M-CSF; 1 ratio in the assay with Cytokine 1 (human); 2 ratio with Cytokine 2 (human); 1 ratio with RNase B (cow); 1 ratio in the assay with Trypsinogen (cow). Moreover, the “signal normalized” value (with Myoglobin (horse); in the assay with Pepsinogen (pork); with Lectin (Lens culinaris); with Antitrypsin (human); in assay [2]; in assay [3]) was 1 ratio throughout. In addition, the “signal normalized” value in [4] is 1 ratio.
